Measured values reported in patent US20180282403A1, “AGENTS FOR REDUCING THE ACTIVITY OF GDF15” (GENAGON THERAPEUTICS AB, priority 2015, published 2018).

Tests used:
Format in all cases: cell-based
[1] = target: T1, QRFPR (Homo sapiens, UniProt Q96P65); assay: In situ PLA detection of CD9-QRFPR proximity; conditions: GDF15 30 minutes; FIG. 4
T1 construct: endogenous in cells
T1 sequence (Q96P65 1-431): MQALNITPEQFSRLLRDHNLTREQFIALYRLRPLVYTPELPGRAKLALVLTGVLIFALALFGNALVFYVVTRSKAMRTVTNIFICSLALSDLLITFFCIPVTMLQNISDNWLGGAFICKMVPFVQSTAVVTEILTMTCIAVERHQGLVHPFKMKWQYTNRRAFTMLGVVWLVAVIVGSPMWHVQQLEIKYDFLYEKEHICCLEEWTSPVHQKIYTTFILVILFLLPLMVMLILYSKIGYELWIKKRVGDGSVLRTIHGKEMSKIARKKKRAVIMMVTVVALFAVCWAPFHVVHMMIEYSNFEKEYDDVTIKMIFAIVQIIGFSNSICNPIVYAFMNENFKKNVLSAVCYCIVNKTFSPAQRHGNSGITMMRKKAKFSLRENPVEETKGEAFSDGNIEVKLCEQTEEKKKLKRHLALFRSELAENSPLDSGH
Source text: The tetraspanin CD9 has dual roles, both in endosome trafficking and in exosome secretion (Mazurov et al.). An in situ PLA assay was developed to detect the proximity of CD9 and QRFPR using antibodies against CD9 and QRFPR. In the absence of GDF15, only a low signal level is observed (FIGS. 4A and 4C).

[2] = target: T1, QRFPR; assay: Western blot of QRFPR positive exosomes from conditioned medium of MCF-7 cells; conditions: MCF-7 cells exposed to GDF15 vs not exposed; FIG. 1B
Method: Conditioned cell culture media were sequentially centrifuged for 5 min at 3,000 x g to pellet the cells and then at 10,000×g for 10 min to further remove cells and cell debris. The supernatant was then filtered through a 0.45 μm filter and then finally pelleted at 100,000×g for 2 h at 4° c. Pelleted exosomes were resuspended in PBS and protease inhibitor (complete mini, Roche) was added. The samples were then prepared for further analyses as described elsewhere.
Material from the ultracentrifuged pellet was separated on a 12.5% SDS-PAGE gel (Biorad) at 150 v for 80 min, wet transferred to a Immobilon K membrane, blocked with 5% BSA for 1 h RT, and incubated with the corresponding QRFPR antibodies o/n at +4 with mild agitation. The membranes were washed with TBST, and the corresponding secondary antibodies, conjugated to horse radish peroxidase, were applied for 1 hr RT, the membrane washed with TBST and developed using an ECL detection reagent (FIG. 1B).

[3] = system: QRFPR; assay: In situ PLA detection of RAB11-QRFPR double positive endosomes in MCF7 cells; conditions: GDF15 stimulation alone; FIG. 5
Source text: The RAB11 protein is a marker for recycling endosomes back to the cell surface, and the RAB11 pathway is also involved in exosome assembly (Savina et al., 2005; Savina et al., 2002). RAB11 was thus thought to be a likely candidate to be involved in QRFPR reduction on the cell surface induced by GDF15
An in situ PLA assay was developed to detect the proximity of RAB11 and QRFPR. In the absence of GDF15, only a low signal is observed (FIGS. 5A and 5C).
We choose to use this assay as a way to investigate if the activity of GDF15 could be inhibited by various agents. […] GDF15-induced formation of RAB11/QRFPR endosomes is inhibited by QRFPR peptides (FIG. 9A-D). Equal amounts of a mastermix of GDF15 was aliquoted and pre-incubated in PBS with the various receptor fragment before addition to cells. Sequentially, the cells were treated with either PBS, GDF15 or GDF15/QRFPR-derived peptide mixes.

[4] = target: T2, CLPTM1 (Homo sapiens, UniProt O96005); assay: Detection of NKG2D in NK-92 cells after extended GDF15 stimulation; conditions: overnight GDF15 stimulation, FIG. 21A
T2 construct: endogenous in cells; host or cells: NK-92 cells
T2 sequence (O96005 1-669): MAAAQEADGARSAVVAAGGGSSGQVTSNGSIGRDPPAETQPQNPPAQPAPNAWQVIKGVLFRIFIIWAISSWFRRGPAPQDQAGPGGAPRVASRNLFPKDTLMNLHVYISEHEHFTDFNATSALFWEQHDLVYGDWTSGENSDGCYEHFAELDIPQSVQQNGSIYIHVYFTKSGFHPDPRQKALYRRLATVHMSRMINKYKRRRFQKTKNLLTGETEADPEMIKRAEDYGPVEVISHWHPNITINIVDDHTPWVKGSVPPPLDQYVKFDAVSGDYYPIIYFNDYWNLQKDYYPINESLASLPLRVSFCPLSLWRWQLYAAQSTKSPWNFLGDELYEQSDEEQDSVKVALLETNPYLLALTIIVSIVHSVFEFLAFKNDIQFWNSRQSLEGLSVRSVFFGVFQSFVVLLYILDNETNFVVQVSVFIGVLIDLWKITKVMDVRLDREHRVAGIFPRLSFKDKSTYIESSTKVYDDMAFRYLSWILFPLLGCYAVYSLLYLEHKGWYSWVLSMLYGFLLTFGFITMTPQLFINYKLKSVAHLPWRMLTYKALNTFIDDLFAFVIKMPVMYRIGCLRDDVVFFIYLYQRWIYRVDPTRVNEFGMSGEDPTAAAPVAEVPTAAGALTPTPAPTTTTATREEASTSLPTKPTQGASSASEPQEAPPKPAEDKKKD
Source text: Based upon literature, the expression of CLPTM1 in immune cells such as CD8+T-lymphocytes and NK-92 cells, and the GDF15 induced proximity of CLPTM1 to TGFBRI-TGFBRII (through which TGFB1 signals), we investigated whether blockade of CLPTM1 by antibodies could affect the levels of the immune effector NKG2D in NK-92 cells that had been subjected to extended stimulation with GDF15. […] The decrease in NKG2D was reversed in NK-92 cells that had been pre-treated with a binding agent capable of binding to CLPTM1 (an antibody) prior to GDF15 stimulation (FIG. 21B). […] We propose that this may increase their cytotoxicity.

[5] = target: T2, CLPTM1; assay: Detection of phosphorylated GSK3b (9/21) in NK-92 cells (in situ PLA, Western blot); conditions: GDF15 in the presence of control antibody, FIG. 16
Method: A-C) In situ PLA detection of phosphorylated GSK3b (GSK3b-p(9/21) using a pair of proximity probes A) Negative control cells with no added GDF15. B) Cells after exposure to GDF15 and control antibody. C) Cells after exposure to GDF15 following pre-incubation with a monoclonal antibody targeting the extracellular domain of CLPTM1 D) Western Blot indicating the levels of phosphorylated GSKb (p-GSKb). Lane 1—No GDF15. Lane 2—GDF15 stim+ ctrl ab. Lane 3 GDF15 stim+ mAb mouse (antibody used in in situ PLA experiment).
The effect of antibodies binding CLPTM1 on inhibiting GDF15 induced downstream signalling through the TGFB heterotetrameric complex was assessed by detecting phosphorylated GSK3b-pGSK3b(9/21) in an in situ PLA assay. Phosphorylation of GSK3b is known to cause immunosuppressive effects i.e. suppress immune cell function.

- CD9-QRFPR complex signal [1]: higher level of signal
- levels of detectable NKG2D [4]: low levels of detectable NKG2D
- 9/21 phosphorylation of GSK3b [5]: induces 9/21 phosphorylation of GSK3b
Substance: GDF15: Growth and differentiation factor 15, from mammalian source or recombinant from E. coli (Abcam, Biovision)
- QRFPR in exosomes from conditioned medium [2]: higher levels of QRFPR in conditioned medium
- RAB11-QRFPR double positive endosomes [3]: rapid detection of RAB11-QRFPR double positive endosomes
